According to patent publication US20120039908A1:

Biological target: T1, S100b protein (Cat. No. 559290, Calbiochem)
T1 sequence (P04271 2-92, species assumed, looked up): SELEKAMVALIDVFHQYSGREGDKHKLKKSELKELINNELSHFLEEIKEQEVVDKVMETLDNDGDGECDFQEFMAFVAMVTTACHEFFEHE
Test: ELISA, S100b coated on plate; reference baseline bioreactor R39

RAGE-Fc fusion protein from bioreactor R66 (CD OptiCHO lipid-free, 2-deoxy-D-glucose 1 g/L at day 9), Day 12, sequence (chain): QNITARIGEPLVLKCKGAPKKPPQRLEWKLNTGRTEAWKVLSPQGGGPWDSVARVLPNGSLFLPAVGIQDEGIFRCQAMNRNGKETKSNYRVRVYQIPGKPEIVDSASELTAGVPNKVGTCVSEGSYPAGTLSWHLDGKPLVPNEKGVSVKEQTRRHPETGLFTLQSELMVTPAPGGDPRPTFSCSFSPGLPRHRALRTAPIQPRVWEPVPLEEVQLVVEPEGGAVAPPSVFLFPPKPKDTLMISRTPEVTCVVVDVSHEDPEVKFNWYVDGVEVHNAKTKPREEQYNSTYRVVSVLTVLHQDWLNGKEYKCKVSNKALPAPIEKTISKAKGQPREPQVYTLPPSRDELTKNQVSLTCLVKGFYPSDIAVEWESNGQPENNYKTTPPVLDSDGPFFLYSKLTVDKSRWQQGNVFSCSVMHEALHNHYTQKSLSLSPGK
RAGE-Fc fusion protein from bioreactor R79 (Ex Cell 325 PF CHO, 2-deoxy-D-glucose 1 g/L at day 7; 9), Day 12, sequence (chain): as above
RAGE-Fc fusion protein from bioreactor R80 (CD CHO, 2-deoxy-D-glucose 1 g/L at day 7; 9), Day 14, sequence (chain): as above
RAGE-Fc fusion protein from bioreactor R80 (CD CHO, 2-deoxy-D-glucose 1 g/L at day 7; 9), Day 12, sequence (chain): as above
RAGE-Fc fusion protein from bioreactor R53 (2-deoxy-D-glucose 1 g/L at day 9; 11), Day 10, sequence (chain): as above
RAGE-Fc fusion protein from bioreactor R53 (2-deoxy-D-glucose 1 g/L at day 9; 11), Day 12, sequence (chain): as above
RAGE-Fc fusion protein from bioreactor R39 (control, no 2-deoxy-D-glucose), Day 12, sequence (chain): as above
RAGE-Fc fusion protein from bioreactor R79 (Ex Cell 325 PF CHO, 2-deoxy-D-glucose 1 g/L at day 7; 9), Day 13, sequence (chain): as above
RAGE-Fc fusion protein from bioreactor R66 (CD OptiCHO lipid-free, 2-deoxy-D-glucose 1 g/L at day 9), Day 14, sequence (chain): as above

Relative binding compared to control [%] | fold S100b binding activity compared to control bioreactor R39 [fold] | fold increase in S100b binding activity compared to baseline bioreactor R39 [fold] | Substance
296 |  |  | RAGE-Fc fusion protein from bioreactor R53 (2-deoxy-D-glucose 1 g/L at day 9; 11), Day 10
1520 |  |  | RAGE-Fc fusion protein from bioreactor R53 (2-deoxy-D-glucose 1 g/L at day 9; 11), Day 12
1630 |  |  | RAGE-Fc fusion protein from bioreactor R80 (CD CHO, 2-deoxy-D-glucose 1 g/L at day 7; 9), Day 12
8080 | 80 |  | RAGE-Fc fusion protein from bioreactor R80 (CD CHO, 2-deoxy-D-glucose 1 g/L at day 7; 9), Day 14
2960 |  |  | RAGE-Fc fusion protein from bioreactor R79 (Ex Cell 325 PF CHO, 2-deoxy-D-glucose 1 g/L at day 7; 9), Day 13
3520 |  |  | RAGE-Fc fusion protein from bioreactor R66 (CD OptiCHO lipid-free, 2-deoxy-D-glucose 1 g/L at day 9), Day 14
527 |  | 5 | RAGE-Fc fusion protein from bioreactor R79 (Ex Cell 325 PF CHO, 2-deoxy-D-glucose 1 g/L at day 7; 9), Day 12
3250 |  | 32 | RAGE-Fc fusion protein from bioreactor R66 (CD OptiCHO lipid-free, 2-deoxy-D-glucose 1 g/L at day 9), Day 12
100 |  |  | RAGE-Fc fusion protein from bioreactor R39 (control, no 2-deoxy-D-glucose), Day 12
